{"source": "patent US12540197B2", "about": "“Anti-tissue factor antibodies and antibody conjugates, compositions comprising anti-tissue factor antibodies or antibody conjugates, and methods of making and using anti-tissue factor antibodies and antibody conjugates” (SUTRO BIOPHARMA, INC., priority 2023, dated 2026)", "molecules": {"B1": {"name": "37 (antibody)", "heavy": "MEVQLVESGGGLVQPGGSLRLSCAASGFSISSYDMSWVRQAPGKGLEWIGIIGSNGRTYYPDSVKGRFTISRDNSKNTVTLQMNSLRAEDTAVYYCARGLYDGTGNIWGQGTLVTVSSASTKGPSVFPLAPSSKSTSGGTAALGCLVKDYFPEPVTVSWNSGALTSGVHTFPAVLQSSGLSLSSVVTVPSSSLGTQTYICNVNHKPSNTKVDKKVEPKSCDKTHTCPPCPAPELLGGPSVFLFPPKPKDTLMISRTPEVTCVVVDVSHEDPEVKFNWYVDGVEVHNAKTKPREEQYNSTYRVVSVLTVLHQDWLNGKEYKCKVSNKALPAPIEKTISKAKGQPREPQVYTLPPSREEMTKNQVSLTCLVKGFYPSDIAVEWESNGQPENNYKTTPPVLDSDGSFLYSKLTVDKSRWQQGNVFSCSVMHEALHNHYTQKSLSLSPGK", "light": "MELVMTQSPPTLSLSPGERVTLSCRASQSVYGNNWLSWYQQKPGQAPRLLIYGASKLATSIPARFSGSGSGTQFTLTISSLQPEDFAVYYCQGTYYSGDWYFAFGQGTKVEIKRTVAAPSVFIFPPSDEQLKSGTASVVCLLNNFYPREAKVQWKVDNALQSGNSQESVTEQDSKDSTYSLSSTLTLSKADYEKHKVYACEVTHQGLSSPVTKSFNRGEC", "modifications": "pAzMeF at Y180/F404; drug conjugate"}, "B2": {"name": "48 (antibody)", "heavy": "B1 heavy with E2Q, L5V, Q14K, V38I, P61A, D73N, N74T, S75N, K76E, T80Y", "light": "MDIQMTQSPSSLSASVGDRVTITCQASQSVYGNNWLSWYQQKPGKAPKLLIYGASKLASGVPSRFSGSGSGTDFTLTISSLQPEDFATYYCQGTYYSGDWYFAFGGGTKVEIKRTVAAPSVFIFPPSDEQLKSGTASVVCLLNNFYPREAKVQWKVDNALQSGNSQESVTEQDSKDSTYSLSSTLTLSKADYEKHKVYACEVTHQGLSSPVTKSFNRGEC", "modifications": "pAzMeF at Y180/F404; conjugate"}, "B3": {"name": "47 (antibody)", "heavy": "B1 heavy", "light": "B2 light with I3L, Q25R, D73Q, G106Q", "modifications": "pAzMeF at Y180/F404; conjugate"}, "B4": {"name": "49 (antibody)", "heavy": "MQVQVQESGPGLVKPPGTLSLTCAVSGFSLSYYGVSWVRQPPGKGLEWIGTIDSSGRTYYNPSLKSRVTISNDNAPNTVSLKLSSVTAADTAVYYCARDFYGWNSGALDIWGQGTLVTVSSASTKGPSVFPLAPSSKSTSGGTAALGCLVKDYFPEPVTVSWNSGALTSGVHTFPAVLQSSGLSLSSVVTVPSSSLGTQTYICNVNHKPSNTKVDKKVEPKSCDKTHTCPPCPAPELLGGPSVFLFPPKPKDTLMISRTPEVTCVVVDVSHEDPEVKFNWYVDGVEVHNAKTKPREEQYNSTYRVVSVLTVLHQDWLNGKEYKCKVSNKALPAPIEKTISKAKGQPREPQVYTLPPSREEMTKNQVSLTCLVKGFYPSDIAVEWESNGQPENNYKTTPPVLDSDGSFLYSKLTVDKSRWQQGNVFSCSVMHEALHNHYTQKSLSLSPGK", "light": "MDLQLTQSPSTLSASVGDRVTITCRASQSVYSNKYLSWYQQKPGKAPKLLIYKASTLASGVPSRFSGSGSGTEFTLTISSLQPDDFATYYCAAAYSDDSDTAFGQGTKVEIKRTVAAPSVFIFPPSDEQLKSGTASVVCLLNNFYPREAKVQWKVDNALQSGNSQESVTEQDSKDSTYSLSSTLTLSKADYEKHKVYACEVTHQGLSSPVTKSFNRGEC", "modifications": "pAzMeF at Y180/F404; conjugate"}}, "key": {"human TF": {"molecular_target": "T1, human TF (Homo sapiens, UniProt P13726)", "T1 construct": "purchased Lake Pharma", "T1 sequence (P13726 33-295)": "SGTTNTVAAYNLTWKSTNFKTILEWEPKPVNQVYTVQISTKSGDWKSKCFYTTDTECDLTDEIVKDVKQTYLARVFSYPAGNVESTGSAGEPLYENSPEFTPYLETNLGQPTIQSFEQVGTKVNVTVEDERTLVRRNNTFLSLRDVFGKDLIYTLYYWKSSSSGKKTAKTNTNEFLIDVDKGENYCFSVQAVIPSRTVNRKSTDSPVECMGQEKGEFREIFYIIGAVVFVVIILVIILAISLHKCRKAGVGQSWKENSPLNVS", "assay": "Biacore off-rate and kinetic binding, human TF", "details": "Table 12; 25° C., 1:1 Langmuir", "description": "(§1) Anti-Fc polyclonal antibodies were immobilized onto a CM4 chip (Cytiva #BR100534) using amine coupling chemistry (Human Antibody Capture Kit, Cytiva #BR100839). The immobilization steps were carried out at a flow rate of 25 μL/min in 1×HBS-EP+buffer (Cytiva #BR100669). The sensor surfaces were activated for 7 min with a mixture of N-hydroxysuccinimide (NHS, 0.05 M) and 1-ethyl-3-(3-dimethylaminopropyl)-carbodiimide (EDC, 0.2 M). The anti-Fc polyclonal antibodies were injected over all 4 flow cells at a concentration of 25 μg/mL in 10 mM sodium acetate, pH 4.5, for 7 min. Ethanolamine (1 M, pH 8.5) was injected for 7 min to block any remaining activated groups. Approximately 6,000 response units (RU) of capture antibody was immobilized on each flow cell.\n(§2) Off-rate and kinetic binding experiments were performed at 25° C. using 1×HBS-EP+buffer. Antibodies were injected over the anti-Fc surface at a concentration of 3 μg/mL for 12 seconds at a flow rate of 10 μL/min on flow cells 2, 3 and 4, followed by a buffer wash for 30 seconds at the same flow rate. Single point off-rate analysis was carried out using an antigen concentration of 100 nM. […] After capturing ligand (antibody) on the anti-Fc surface, the analyte (human TF, Lake Pharma; cynomolgus TF, Sino Bio #90885-C08H; mouse TF, R&D Systems #3178-PA) was bound for 180 seconds, followed by a 420 second dissociation phase at a flow rate of 50 μL/min. Between each ligand capture and analyte binding cycle, regeneration was carried out using 2 injections of 10 mM glycine pH 2.0 for 30 seconds at 30 μL/min, followed by a 30 second buffer wash step.\n(§3) The data were fit with the Biacore T200 Evaluation software, using a 1:1 Langmuir binding model. KD (affinity, nM) was determined as a ratio of the kinetic rate constants calculated from the fits of the association and dissociation phases.\n(§4) Anti-Fc polyclonal antibodies were immobilized onto a CM4 chip (Cytiva #BR100534) using amine coupling chemistry (Human Antibody Capture Kit, Cytiva #BR100839). The immobilization steps were carried out at a flow rate of 25 μL/min in 1×HBS-EP+buffer (Cytiva #BR100669). The sensor surfaces were activated for 7 min with a mixture of NHS (0.05 M) and EDC (0.2 M). The Anti-Fc antibodies were injected over all 4 flow cells at a concentration of 25 ug/ml in 10 mM sodium acetate, pH 4.5, for 7 min. Ethanolamine (1 M, pH 8.5) was injected for 7 min to block any remaining activated groups. Approximately 6,000 response units (RU) of capture antibody was immobilized on each flow cell. Off-rate and kinetic binding experiments were performed at 25° C. using 1×HBS-EP+buffer. Antibodies or ADCs were injected over the anti-Fc surface at a concentration of 3 μg/mL for 12 seconds at a flow rate of 10 μL/min on flow cells 2, 3 and 4, followed by a buffer wash for 30 seconds at the same flow rate. […] After capturing ligand (antibody) on the anti-Fc surface, the analyte (human TF, Lake Pharma; cynomolgus TF, Sino Bio #90885-C08H; mouse TF, R&D Systems #3178-PA) was bound for 180 seconds, followed by a 420 second dissociation phase at a flow rate of 50 μL/min. Between each ligand capture and analyte binding cycle, regeneration was carried out using 2 injections of 10 mM Glycine pH 2.0 for 30 seconds at 30 μL/min, followed by a 30 second buffer wash step. The data was fit with the Biacore T200 Evaluation software, using a 1-1 Langmuir binding model. KD (affinity, nM) was determined as a ratio of the kinetic rate constants calculated from the fits of the association and dissociation phases."}, "cynomolgus TF": {"tested_on": "cynomolgus TF", "sequence (as listed by the source)": "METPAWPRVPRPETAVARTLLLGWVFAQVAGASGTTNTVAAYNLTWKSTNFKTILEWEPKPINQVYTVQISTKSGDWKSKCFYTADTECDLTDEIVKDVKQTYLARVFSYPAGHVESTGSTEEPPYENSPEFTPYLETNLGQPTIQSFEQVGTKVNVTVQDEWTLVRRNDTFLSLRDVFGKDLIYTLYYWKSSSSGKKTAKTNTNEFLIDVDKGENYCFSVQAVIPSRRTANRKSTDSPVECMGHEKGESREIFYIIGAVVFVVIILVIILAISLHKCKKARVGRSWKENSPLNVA", "assay": "Biacore off-rate and kinetic binding, cynomolgus TF", "details": "Table 12; 25° C., 1:1 Langmuir", "description": "as §1, §2, §3, §4"}, "[1]": {"tested_on": "primary human keratinocytes", "assay": "Cell binding on primary adult human keratinocytes (flow cytometry)", "details": "Table 29, primary human keratinocytes", "description": "Since TF is expressed in human skin, anti-TF antibody 2900-A02 and 2842-B01-Hc3/Lc2 were tested in cell binding assay on primary adult human keratinocyte cells purchased from Thermo Fisher Scientific. Keratinocytes were cultured in defined keratinocyte culture medium (EpiLife Medium, Thermo Fisher Scientific) supplemented with growth supplement S7 (S0175 from Thermo Fisher Scientific) and Penicillin/Streptomycin on plates coated with keratinocyte coating matrix (Thermo Fisher Scientific).\nTo evaluate antibody binding activity of the anti-TF antibodies on the adult primary keratinocytes, a total of 100,000 keratinocytes per well were incubated on ice with serial dilutions of anti-TF antibodies in FACS buffer (PBS buffer supplemented with 1% bovine serum albumin, 0.05% sodium azide) for 60 minutes. Cells were washed twice with ice-cold FACS buffer and then incubated with 5 microgram/mL Alexa 647 labeled donkey anti-human Fc antibody (Jackson ImmunoResearch, West Grove, PA) on ice for another 60 minutes. Unstained cells and cells stained with secondary antibodies alone were used as controls. Samples were then washed twice using FACS buffer and analyzed using an Attune flow cytometer (Thermo Fisher). Geometric mean fluorescence intensities were fitted using non-linear regression analysis with one site specific binding equation on GraphPad Prism."}, "[2]": {"tested_on": "primary human keratinocytes", "assay": "ADC cell killing on primary adult human keratinocytes (WST-8)", "type": "cell-based", "details": "Table 30, 120 hours, read-out: Keratinocyte Killing EC50", "protocol": "To evaluate the cytotoxicity effects of the ADC on the adult primary keratinocytes, a total of 2000 keratinocytes in a volume of 50 microliters were seeded in a 96-well flat bottom cell culture plate coated with keratinocyte coating matrix (Thermo Fisher Scientific) the day before the actual assay starts. ADCs were formulated at 2× starting concentration in cell culture medium and filtered through SpinX 0.22 micron cellulose acetate filtered 2 mL centrifuge tubes (Corning Costar). Filter sterilized samples were serial diluted (1:3) under sterile conditions and added onto cells in triplicates. Plates were cultured at 37° C. in a CO2 incubator for 120 hours. For cell viability measurement, 10 microliters of WST-8 reagent (VWR) were added into each well and plates were incubated at 37° C. in a CO2 incubator for 4 hours. […] Data was fitted with non-linear regression analysis, using log (inhibitor) vs. response, variable slope, 4-parameter fit equation using GraphPad Prism. Data was expressed as % relative cell viability vs. dose of free linker-warhead or ADC in nanomolar with error bars indicating the Standard Deviation (SD) of the triplicates."}, "HEK293T": {"tested_on": "HEK293T", "assay": "FACS cell-binding assay on parental HEK293T cells", "details": "Table 16, parental cells", "text": "HEK293T, BxPC3 cells (TF positive) and NCI-H1703 (TF negative) cells were obtained from ATCC (American Type Culture Collection) and maintained in DMEM:F12 (1:1), high glucose (Corning) supplemented with 10% heat-inactivated fetal bovine serum (ThermoScientific), 1× Penicillin/Streptomycin (Corning) and 2 mmol glutamax (Thermo Fisher Scientific). To generate cells that stably expressing human tissue factor (HEK293T-humanTF) or cynomolgus tissue factor (HEK293T-cynoTF), HEK293T cells were transfected with plasmid vectors that contain the corresponding protein sequence and stable clones were selected with puromycin.\nFor a fluorescence-activated cell sorting (FACS) cell-binding assay, cells were collected by Accutase and counted by the Vi-CELL Cell Viability Analyzersharvested and, then re-suspended in FACS buffer (DPBS buffer supplemented with 1% bovine serum albumin). A total of 200,000 cells in 100 μL were incubated on ice with 100 μL of anti-TF antibodies in each well of a 96-well plate. Cells were washed twice with ice-cold FACS buffer and then incubated on ice for 60 mins with 5 μg/mL Alexa 647-labeled donkey anti-human Fc antibody (Jackson ImmunoResearch). Unstained cells and cells stained with secondary antibody alone were used as controls. Cells were washed twice with FACS buffer and analyzed using a BD FACS Canto system. Geometric mean fluorescence intensities (MFI) were fitted using non-linear regression analysis with one site specific binding equation on GraphPad Prism (GraphPad Software; La Jolla, CA)."}}, "note": "Changes are numbered by the printed parent chain.", "data": [{"molecule": "B1", "values": [{"measurement": "Biacore human TF kinetics ka", "setting": "human TF", "result": 57200, "unit": "M⁻¹ s⁻¹"}, {"measurement": "Biacore human TF kinetics kd", "setting": "human TF", "result": 0.000418, "unit": "s⁻¹"}, {"measurement": "Biacore cynomolgus TF kinetics ka", "setting": "cynomolgus TF", "result": 72400, "unit": "M⁻¹ s⁻¹"}, {"measurement": "Biacore cynomolgus TF kinetics kd", "setting": "cynomolgus TF", "result": 0.00113, "unit": "s⁻¹"}, {"measurement": "Keratinocyte Binding Bmax", "setting": "[1]", "result": 151831}, {"measurement": "EC50", "setting": "[2]", "result": "> 0.1", "unit": "µM"}, {"measurement": "HEK293T Bmax (MFI)", "setting": "HEK293T", "result": 1062, "unit": "MFI"}]}, {"molecule": "B2", "values": [{"measurement": "Biacore human TF kinetics ka", "setting": "human TF", "result": 71200, "unit": "M⁻¹ s⁻¹"}, {"measurement": "Biacore human TF kinetics kd", "setting": "human TF", "result": 0.00124, "unit": "s⁻¹"}, {"measurement": "Biacore cynomolgus TF kinetics ka", "setting": "cynomolgus TF", "result": 121000, "unit": "M⁻¹ s⁻¹"}, {"measurement": "Biacore cynomolgus TF kinetics kd", "setting": "cynomolgus TF", "result": 0.00735, "unit": "s⁻¹"}, {"measurement": "HEK293T Bmax (MFI)", "setting": "HEK293T", "result": 1232, "unit": "MFI"}]}, {"molecule": "B3", "values": [{"measurement": "Biacore human TF kinetics ka", "setting": "human TF", "result": 54000, "unit": "M⁻¹ s⁻¹"}, {"measurement": "Biacore human TF kinetics kd", "setting": "human TF", "result": 0.000422, "unit": "s⁻¹"}, {"measurement": "Biacore cynomolgus TF kinetics ka", "setting": "cynomolgus TF", "result": 82700, "unit": "M⁻¹ s⁻¹"}, {"measurement": "Biacore cynomolgus TF kinetics kd", "setting": "cynomolgus TF", "result": 0.00166, "unit": "s⁻¹"}, {"measurement": "HEK293T Bmax (MFI)", "setting": "HEK293T", "result": 1285, "unit": "MFI"}]}, {"molecule": "B4", "values": [{"measurement": "Biacore human TF kinetics ka", "setting": "human TF", "result": 62500, "unit": "M⁻¹ s⁻¹"}, {"measurement": "Biacore human TF kinetics kd", "setting": "human TF", "result": 0.000865, "unit": "s⁻¹"}, {"measurement": "Biacore cynomolgus TF kinetics ka", "setting": "cynomolgus TF", "result": 80800, "unit": "M⁻¹ s⁻¹"}, {"measurement": "Biacore cynomolgus TF kinetics kd", "setting": "cynomolgus TF", "result": 0.00241, "unit": "s⁻¹"}, {"measurement": "HEK293T Bmax (MFI)", "setting": "HEK293T", "result": 1366, "unit": "MFI"}]}]}
